Data as given in the supplement of paper PMC12764529.
± gives the half width of the 95% confidence interval.

How the values were obtained:
[1] = folding stability dG unfold from trypsin proteolysis; higher = more stable
In short: (§1)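 Only designs with AlphaFold2 dimer inter-PAE above 15 were retained; each was a mini-protein under 80 residues with no cysteine, in a PA-tagged cDNA display construct. After digestion with trypsin and chymotrypsin and sequencing, K50 was inferred by Bayesian fitting of counts, and unfolding free energy was derived per protease or combined against a sequence-predicted unfolded-state K50 and a shared folded-state K50.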

[2] = folding stability dG unfold from chymotrypsin proteolysis; higher = more stable
In short: as §1

[3] = folding stability dG unfold (combined trypsin and chymotrypsin); higher = more stable
In short: as §1

SKEKVKVEIKLTVTKVFPPEELEKDPKTGKYRNKDTGKWFEPPKVVVKELTLTIEMSKEEVEKLLKELLKSA [r9_165_TrROS_Hall]
folding stability dG unfold [1]: 1.52 ± 0.059 kcal/mol | folding stability dG unfold [2]: 2.63 ± 0.048 kcal/mol | folding stability dG unfold [3]: 2.29 ± 0.095 kcal/mol

SKETETVEMEITITVNGKKVKIKATFTRNKDGSITMTITYEDGKKIEITFTNGKIVIVDKKTKKIIAEIPSA [r9_970_TrROS_Hall]
folding stability dG unfold [1]: 2.54 ± 0.19 kcal/mol | folding stability dG unfold [2]: 4.41 ± 0.15 kcal/mol | folding stability dG unfold [3]: 4.14 ± 0.25 kcal/mol

SKFKIDEIKYEPNKPYTIKVKLPDGTTIEIKYDPNKPNEVKIILTHPDGSKKEFTLPYNYPININLKVNPSA [r9_875_TrMRF]
folding stability dG unfold [1]: 1.59 ± 0.031 kcal/mol | folding stability dG unfold [2]: 2.05 ± 0.081 kcal/mol | folding stability dG unfold [3]: 1.95 ± 0.083 kcal/mol

SKGKKVLVIPATLPEAEEIAKALGLPPSLFPSSKKLVDALKEAFPENVVVVVAPAKPVTEEELKALAEGKSA [r9_74_TrMRF]
folding stability dG unfold [1]: 0.19 ± 0.037 kcal/mol | folding stability dG unfold [2]: 0.93 ± 0.039 kcal/mol | folding stability dG unfold [3]: 0.678 ± 0.081 kcal/mol

SKIEIDEFPWERNPDDGYATIQIKIKVRDPDKKKKDIPHEFPPGSSPDQFWDQIENRAQNNGIKDVEISWSA [r9_1203_TrROS]
folding stability dG unfold [1]: 0.0973 ± 0.058 kcal/mol | folding stability dG unfold [2]: -0.0831 ± 0.11 kcal/mol | folding stability dG unfold [3]: 0.032 ± 0.13 kcal/mol

SKIKIEEVPEGEEVEIEIPETKKTITIVKKDDYLIIKVKDKKTGEEKEIVIKVPPENIEEVLKKIEELLKSA [r9_982_TrROS_Hall]
folding stability dG unfold [1]: 2.01 ± 0.1 kcal/mol | folding stability dG unfold [2]: 2.34 ± 0.25 kcal/mol | folding stability dG unfold [3]: 2.11 ± 0.4 kcal/mol

SKIRIEVPGETIEITVPPGATVEFDEETGEITITLPDGSKRTIRLPPNAKIEVVDGEIRITIRLPPPPEPSA [r9_653_TrROS_Hall]
folding stability dG unfold [1]: 3.15 ± 0.12 kcal/mol | folding stability dG unfold [2]: 2.78 ± 0.2 kcal/mol | folding stability dG unfold [3]: 2.93 ± 0.21 kcal/mol

SKKIIIKITITDPKNKKKIKITEIIFDKKTKKIIIKIEVENVKNKEKLKSKEDVLEAIKKLLEKLGFKPISA [r9_258_TrROS_Hall]
folding stability dG unfold [1]: 1.81 ± 0.23 kcal/mol | folding stability dG unfold [2]: 2.47 ± 0.35 kcal/mol | folding stability dG unfold [3]: 2.25 ± 0.47 kcal/mol

SKKKIEIEVIDLKTGKTETIEADTLEEALEEIKKNAPPGSTVIVRIKLPDGSVLEITLEIKPEKVTEKEKSA [r9_482_TrROS_Hall]
folding stability dG unfold [1]: 0.956 ± 0.074 kcal/mol | folding stability dG unfold [2]: 1.37 ± 0.087 kcal/mol | folding stability dG unfold [3]: 1.21 ± 0.22 kcal/mol

SKKKKEKKKKEKEKKEKKKVIVLSEEELLEKVRELAKKGKKVKIVVKTPDKELAERLAKEAEELGVEVEVSA [r9_468_TrROS_Hall]
folding stability dG unfold [1]: 1.45 ± 0.059 kcal/mol | folding stability dG unfold [2]: 1.32 ± 0.027 kcal/mol | folding stability dG unfold [3]: 1.31 ± 0.13 kcal/mol

SKKKKKKKKKKPKTVIIEIDVKEMSEEEIREILKKLPKNVKRVIIIAKSEEEKEKLKELLKEAGYEVEIVSA [r9_919_TrROS_Hall]
folding stability dG unfold [1]: 1.96 ± 0.18 kcal/mol | folding stability dG unfold [2]: 1.94 ± 0.069 kcal/mol | folding stability dG unfold [3]: 1.76 ± 0.25 kcal/mol

SKKKKKKKKKKVIIKIKKDGKEIYIEMTVEEIKELLKKGVKKIEIYSPSEEEKEKIKKLLEEEGVEVEEVSA [r9_810_TrROS_Hall]
folding stability dG unfold [1]: 2 ± 0.1 kcal/mol | folding stability dG unfold [2]: 1.71 ± 0.07 kcal/mol | folding stability dG unfold [3]: 1.78 ± 0.18 kcal/mol

SKKKKKKTIKIKITIKVEKEVKIRIIYNGKEKEITIKPGETKTIEITFPAGKVIIEIYKDGKPIKKIEIKSA [r9_411_TrROS_Hall]
folding stability dG unfold [1]: 2.94 ± 0.092 kcal/mol | folding stability dG unfold [2]: 3 ± 0.051 kcal/mol | folding stability dG unfold [3]: 2.95 ± 0.1 kcal/mol

SKKKKPPKKTVTVVVKVKPGEKITLTLKNKDGKEIAKVEFTKLPEDEPLYIATVTLKDGKLTIKVTKLKPSA [r9_238_TrROS_Hall]
folding stability dG unfold [1]: 2.1 ± 0.36 kcal/mol | folding stability dG unfold [2]: 2.53 ± 0.13 kcal/mol | folding stability dG unfold [3]: 2.66 ± 0.34 kcal/mol

SKKKKTIVIELTKDELKELLKKLKVEEGDEVEIFVRNKDGSIYKLTIKNGKITKIEPFKGVPNKVVIVIKSA [r9_849_TrROS_Hall]
folding stability dG unfold [1]: 1.84 ± 0.067 kcal/mol | folding stability dG unfold [2]: 3.49 ± 0.068 kcal/mol | folding stability dG unfold [3]: 3.07 ± 0.3 kcal/mol

SKKKVTININITPGDPEQMEENVRWAIKEAAENDPDKEVTITIHFPPGHPEWMRWIKELFTKKGIPITIHSA [r9_1202_TrROS]
folding stability dG unfold [1]: 2.88 ± 0.042 kcal/mol | folding stability dG unfold [2]: 3.3 ± 0.037 kcal/mol | folding stability dG unfold [3]: 3.16 ± 0.059 kcal/mol

SKKTVYRIVIELENGEKLEIEVPLGSEVKIEKKEDGTITITVNGKKIEIKLKPGEKAKIVKIEKLPEEEESA [r9_773_TrROS_Hall]
folding stability dG unfold [1]: 2.1 ± 0.13 kcal/mol | folding stability dG unfold [2]: 2.48 ± 0.064 kcal/mol | folding stability dG unfold [3]: 2.52 ± 0.23 kcal/mol

SKKVKEITIEGAPPGAKVTITVEEKGDKLIVRVEVERNGKTETFEVEMTLDELKALLDAGYTIRITEVIPSA [r9_1021_TrROS_Hall]
folding stability dG unfold [1]: 2.04 ± 0.15 kcal/mol | folding stability dG unfold [2]: 2.12 ± 0.086 kcal/mol | folding stability dG unfold [3]: 1.99 ± 0.35 kcal/mol

SKKVTLPIRFPWNGWEIEITAEELAEKKGLDPEDLTIHVVMPGPGWMYTIKIDPDGIEIEPIGPVPPNDMSA [r9_819_TrROS]
folding stability dG unfold [1]: 1.45 ± 0.029 kcal/mol | folding stability dG unfold [2]: 2.951 ± 0.026 kcal/mol | folding stability dG unfold [3]: 2.54 ± 0.074 kcal/mol

SKKVVFVTYPKTSVKEIVEKLKENPNTEFVFLMPSSVGPEFYEKLKKALKEANIPKEQKVLFLPVEENSLSA [r9_670_TrMRF]
folding stability dG unfold [1]: 2.92 ± 0.13 kcal/mol | folding stability dG unfold [2]: 3.106 ± 0.015 kcal/mol | folding stability dG unfold [3]: 3.04 ± 0.077 kcal/mol

SKKYFLKIEIEIEVELRPLPDEPGYVVLRARIKIKITLVKVDPETGEIVEEKEFEIEIEIELVFPPGVKPSA [r9_1234_TrROS_Hall]
folding stability dG unfold [1]: 4.35 ± 0.58 kcal/mol | folding stability dG unfold [2]: 6.38 ± 0.71 kcal/mol | folding stability dG unfold [3]: > 6 kcal/mol
